For two substances, Kd results are on record in doi:10.1101/2020.05.05.078782.

What is called Kd is the constant that tells how readily two partners part at equilibrium. Lower therefore signals higher affinity.

In this assay the target is BD1 bromodomain construct (residues 44-168) of human Brd4 (human) (UniProt O60885). The experiment in a line: SPR.

The substance “YFV-C (residues 1-11) peptide acetylated at lysine 4” displayed a Kd of 362 µM.
Take “YFV-C (residues 1-11) peptide acetylated at lysine 8”: the Kd was found to be 540 µM.
